The text below walks through data of publication PMC8967028.

This experiment deals with SARS-CoV-2 Wuhan spike (S) receptor binding domain (SARS-CoV-2). As to the kind of experiment: SPR; Biacore T200; […], single cycle kinetics, […]; 25°C; PBS, 0.05% Tween 20, 3.4 mM EDTA; 1:1 binding model; triplicate; […]. (In general: Surface plasmon resonance follows binding to a sensor surface in real time, without labels.)

What is called koff is the first-order rate constant of dissociation. A low value points to slow dissociation.

VHH-72-Fc L97W (Fc fusion) had a koff of 0.0018 s⁻¹.
Under VHH-72-Fc S56M (Fc fusion) stands 0.0031 s⁻¹; under parental VHH-72-Fc (Fc fusion), 0.0091 s⁻¹.
Substance VHH-72-Fc S56M,T99V (Fc fusion) yielded a koff of 0.00041 s⁻¹.
In turn, VHH-72-Fc L97W,T99V (Fc fusion) yielded an off-rate constant (koff) of 0.00035 s⁻¹.
On to VHH-72-Fc S56M,L97W (Fc fusion), for which the koff is 0.00044 s⁻¹.
The substance VHH-72-Fc T99V (Fc fusion) registered a koff of 0.00072 s⁻¹.
Under VHH-72-Fc S56M,L97W,T99V (Fc fusion) stands 0.00028 s⁻¹.
